Measurements taken from a protein production outcome set (Wang et al. 2014).

Test: label from the status in PepcDB records

Row | Sequence | protein production
1 | MDTDFRVTGRNAAALFALTIHRGDGMVLLGMDWKNGRPPIDFVGFAIQYREPGTDFFKNVRNRIGFPGQPVPADGIRTTEAPIQKFRWVHFPFNADLPGKFLYRVTPKFMDAAGGLASGEAQEAELALMRETIPGKLNVAFTRGFVSSQAFVRNFAPDAPTIITLVPPVGDEGLDFVPTHADAERALAWMGFEARAETLDLLDRAQAAGAEVRVIAYDLNLPEVVTRLEALGPKLKIIIDDSARTDGHGRPDSPETKAAERLIASAGAANVKRQHMANLQHQKSIAVRGGGISTVLYGSTNLSWRGLYVQSNNSLAVHSEKAIDDYFTAFESYFTAKRAADFRSSASSAGWIDLGLDGVDAKVAFSPHSDANGRLDEIGADIDTAQSSVLFSLAFLGQMTRGAIGPALGRALERPEVHVMGIADAEVRAGNLGLNVLTPDNRRRVVRAAALTGNVPPPFLTEPSGLAGVDGNQRGTRMHHKFVVLDFDKPTARVYLGSYNFSNPADDENGENLVVVRDRTVATSYMIEALRMYDHYVFRVASEASDGPARPLELKRPPQPGGTPWFERDWTDPIRARDRELFARAE | failed
2 | MLFDEKEILAITRWAKLYANQSPDRILLGSNDIPPEYRAAVATQIELWPRLRNKLPQWPGISSLYIPSRLSLEQSSGAVTSSYKSRFIREGTKVVDLTGGLGIDFIALMSKASQGIYIERNDETAVAARHNIPLLLNEGKDLNILTGDFKEYLPLIKTFHSDYIYVDPARRSGADKRVYAIADCEPDLIPLAAELLPFCSSILAKLSPMIDLWDTLQSLPHVQELHVVAAHGEVKELLVRMSLNEATIPPEKVPIHAVNLLSEDTVIPFIFTMEEERSISVPYADSIDKYVYEPHTALFKAGAFKTVAYRLGLRKLHPNSHLYTSEAYESAFPGRTFVLEEIIPFSTSVLKQLGKVVPRASISCRNFPLSPIELRQRSKMADGGEKTLMGTTMADGKKVLLLLRKAE | failed
3 | SSFQSTTGHCVHMRGLPYRATENDIYNFFSPLNPMRVHIEIGPDGRVTGEADVEFATHEDAVAAMAKDKANMQHRYVELFLNSTAGTSG | not failed
4 | MYIKKIVIGLLFVTLVGCSSSPDTEETKEKILIKTNNYSDLIIFYKNQLKVSEDPYTREKLAQAYLDSGDPDSALFAIQYLNEDDDSRSISSFLIEANAQLECGMLEPALDTVNRVYKLNEDNPEIENLLGVIYASKRDLDKSRHYFNLARKHLYSDITIKNNLAILNIIEGKYDQAVKLLLPIYMSNKNDALVQANLMLAMAKAGDLEFMEKVLSPQFSKQEIERRYSILKNTESHRDDTNLFGAD | failed
5 | MSRQAEDLMVRTLSDASSLFGKERYKKALEKLDKAEKLAEKTKRTDILCRVLLQKGAVMNSMGKPDEGQDLYDKALDIYRTSNLNEQESSVLKHTLSNTFSELAKHFKMVDSIENAEKCYLNEIKVYEILLEKDPEDEDSNLEIARVFKAIGDLYEYFKPEKMDPETERQYYEKILDIREKAFELLPDSETYIYDLAHALGKLVDYYIIRQDYKSAIQFQERVVEVMEELIDLLANWKDLKAKSNAYDKLGSLYAEIGEEELAQEQYSKALEYYGMIFDDELWPLSVKAMLASELMERGKTLLLLKKYESAKESMDVALDFLEGVDKEEMEDSTEESLDLASVILGEGYEEESEDSGYLAELAGIFREYAKTLSDLNRNEEAEEFTAKSEKILRKLA | failed
6 | MIGYVLNGEHEEIPYGELMALLEIFNYNGSVERLKRYVITEDSPAKDIVKRSGYIDEGHRIIFRYNLEEKSVDLVDKIVNDFINSFKDFVANIDYPDIDESKSYAVRVLKLHKDEFTKSIDSLRIEKEIGGIIKLKTNAKVNLTKPDILVRVVILENTFFISNVLEMRDREYFQKNRPHLRKYFHPGCMLPKLARAMVNLARVKEGDIVLDPFCGTGGFLIEAGLIGAKLIGCDIDWRMASGTLINLEEYNLLDKVIKVKRLDAKYVKEFLNELNIEKVDAIVTDPPYGISTAKKGEIEKILETLPEVIKDNGYFVFAYPKKIELDMELEGLYKVYIHKGLIRHIHVYKKI | failed
7 | MTSQITANGTQRLPEPVSEHEAVPPPPPTAAGRPRPPTSQLFSRGNLASSRATGGDKSGLARPSTAVRAVGYAANCESAHQRFEQFFLEKAKQQTLSSRAAVDAIKDVNPQMKYKNLEEKIVKLLESSIVLAWQGSPNKLLNLDTKLAEALSKAKEAFSLDRTLHQFRDQHGENVYHNFDLTYAQYERSEMHIEALNTYSIMAKNKMFPHVNQLKLNMGNIYYSMGIYQKAVKMYRMALDSVPKSLSQLRLKIRENIGILFIRMGSYSDAASSFEFIMTERANIRSSIHLLLCYFALGDVEKVKLAFRRLCDVQTEAIESDMESETNIIKLQQQAEPIQQIGETDGYQSLNNEPVTGSVIKAEGGGKLNETVKFAATVKHRYVVQALKKDELAVYRNERRNAVKRSITMIVDLISPFIEDNYNDGYNWCIEIIKTSNLAWLANELELNKALVYLRQNDVHQAIETLQMYDRKSEGSMTASALTNLSFIYIKMASHCVNQLHEIGSLKNNAPGLINAGIVELGSHNLILASERFEGALQLQPMNFEARYNLGLVALAQNDYELAEERFELLKEQLMLPSSVQHSHVFYQLAKLQERRLESGLISNFTPGAALQAYLQVVGISASDIDSRLFEKVGSLYEQIQDHQEANQYYNEAYRINMSDIGIASSIGSYYIKLQATERALFYYERAVLADPNDPNLMLRIASCFRNSYLPTKQYLGLFQKIHARFPDNLTCIRALMQVTKSLELGDLYERYASEYTRLQSQQQERQSEQRYQQQRFPSAAKFTIRQSNEEHLKEVGENFNSVVHTQSPYTSILQFDPLGPPAERPKTGRPLQSRDDVDDDAEMNPESLLPI | failed
8 | MQSINFRTARGNLSEVLNNVEAGEEVEITRRGREPAVIVSKATFEAYKKAALDAEFASLFDTLDSTNKELVNRLEHHHHHH | not failed
9 | MPIGFLRSLTARHRNPVSNRRLARVLCFVAGAANAGGFLAVQQYTSHMSGIVSAIADDLVLQRYGLVVHGIGALASFLAGAGTTAILVNWARRARLRSEYAIPLLVEATLLLCFGLLGSHLNDMDWLFVPATVMLLCFMMGLQNALITKLSNAEIRTTHVTGMVTDIGIELGKLFYWNAAVRPNSRPVMADRHKLRLLTVLVGMFLVGGIVGAQAFSTLGYAATLPLAALLLIVAIIPVADDLLTRLLLRVHRADSARRARRWGARGR | failed
10 | MIVRMRSCAQAAKVAEATGGVQLAGKPKPDGTPTFSRYVEIGVDFEAHRPVVESVSVLFELYDGDANSYAATGGPGAQLPSGWMVTAAKFEVEWPADPQRAGLVRSHFGARRKAFNWGLAQVKADLDAKAADPAHESVDWDLKSLRWAWNRAKDDVAPWWAENSKECYSSGLADLAQGLANWKAGKNGTRKGRRVGFPRFKSGRRDPGRVRFTTGTMRIEDDRRTITVPVIGPLRAKENTRRVQRHLVSGRAQILNMTLSQRWGRLFVAVCYALRTPTTRSPLTQPTVRAGMDLGVRTLATVATLDTATGEQTIIEYPNPAPLKATLVARRRAGRELSRRIPGSHGHRAVKAKLARLDRRCVHLRREAAHQLTTELAGTYGQVVIEDLDVAAMKRSMRRRAFRRSVSDAAMGLVAPQLAYKTAKCSGVLTVADRWFASSQIHHGCTSPDGTPCRLQGKGRIDKHLLCPVTGEVVDRDRNAALNLRDWPDNASRGPVGTTAPSAPGPTTTVGTGHGADTGSSGAGGASVRPRPRRAGRGEAKTQTPQGDAA | failed
11 | MEQRPYSLCLLRLSALGDITHVLPLVRTLQRERPQARLHWIIDTMGSKLMDGLDGIHFHVYDKHTGLRGMRALRAELTPLGHFDALLHMQVSLRANLLSAFVPAQRRIGYDHNRSKDLHGLFINERIPDNPGIHVLDAIGSFCEPLGLVQREVRWDLPVSEEARAWAWAQWNNDGRPVLMISPCSSHTHRNWQAKRYAAVAEHASAQGWRIVLCGGRSTLERQTADTILAQTQVPLLDMVGKDTLKQLPALLERADLVMTPDSGPMHIANALGKKVLGLHAASNPHRSGPYSDLRYCVNRYDAAAHKYLGKPSNMLKWGTKIESNGVMDLVTVEDAIAAFERYRADYAHH | failed
12 | MKLFTTALFAIAFGIVIGLSFPSLWITEIWEPSNPRGAERLPSGIIASESDLYLRRLWGNPDEDLVKQPRYLATFTVGYNQRHNIDACVSKFSENFTIVLFHYDGVTSAWNDEFEWSRNAIHISVKKQTKWWYAKRFLHPDIVARYDYIFIWDEDLGVDHFNAEEYIHIVKKHDLEISQPGLDPETGFNWQITKRREHSEVHKETDEKLDWCSNPPRPPCAAFVEIMAPVFSRDAWRCVWHMIQNDLVHGWGLDFALRRCVEEPAFEKIGIVDSQWIVHQFIPSLGNQGKADNGKAPWQGVRDRCQMEWKMFENRVEAAEKDYFRSLQVESPSNSTTSH | failed
